This is an account of results in patent US11472839B2, “Peptide capable of forming a gel for use in tissue engineering and bioprinting” (KING ABDULLAH UNIVERSITY OF SCIENCE AND TECHNOLOGY, priority 2017, dated 2022).

Non-standard residues stand in square brackets, D forms with d. Cha = N[C@@H](CC1CCCCC1)C(=O)O

The nature of data set [1]: Peptide hydrogel preparation / self-assembly (gelation). The note with it: FIG. 1A. In kind it is physicochemical. Here is the method:
Lyophilized peptides were dissolved in milliQ water and vortexed to get a homogenous solution. Subsequently, 10× phosphate buffered saline at the final concentration of 1× was added to the peptide solution and vortexed shortly. Gelation occurred within few seconds to minutes or hours depending on the peptide sequence.

Data set [2] is described as follows: Transmission electron microscopy (TEM) of peptide nanofibers. Type of data set: physicochemical. The note with it: TEM images (13 for IVFK, 10 for IVZK), distribution curve; IVZK shows three types of average diameter, 8.6 nm most abundant, 4.0 nm single monomer fiber. The method, then: The TEM studies were carried out on two different instruments; Tecnai G2 Spirit Twin with accelerating voltage of 120 kV and FEI Titan G2 80-300 CT with 300 kV emission gun. The Cryo TEM imaging was performed in low dose mode by using FEI's Titan Krios operating at 300 kV. The TEM samples for peptide nanofiber were prepared from diluted peptide hydrogel in water. One drop of this solution was then introduced on a carbon coated copper grid that has been treated with glow discharge plasma before being used. The drop was then kept for 10 minutes before being blotted using filter paper. To get a better contrast, the grid was stained using 2% uranyl acetate for 1 minute and then was dried for at least one day before imaging. The diameter of IVFK and IVZK peptide nanofibers were measured using an image-analysis software ImageJ from 13 and 10 TEM images, respectively. A size distribution histogram for each peptide nanofiber was created in Origin to calculate the average diameter of both peptides. See e.g. FIG. 1B.

As to “Ac-IVOK-NH2 (Ac-IV[Cha]K-NH2; SMILES CC[C@H](C)[C@H](NC(C)=O)C(=O)N[C@H](C(=O)N[C@@H](CC1CCCCC1)C(=O)N[C@@H](CCCCN)C(N)=O)C(C)C) [IVZK, ultrashort self-assembling peptide; Z undefined, probably cyclohexylalanine]”, the self-assembly into hydrogel entry in data set [1] is given as “self-assemble into macromolecular nanofibrous hydrogels”.
For the substance Ac-IVFK-NH2, in data set [2], the average fiber diameter is given as 10.3 nm. In addition, the self-assembly into hydrogel entry in data set [1] was “self-assemble into macromolecular nanofibrous hydrogels”.
